Test results taken from article doi:10.1101/2020.06.12.149252.

Target: taxol-stabilized microtubules (porcine brain tubulin) (porcine) (UniProt P02550)
Test: TIRF microscopy

UniProt P02550, sequence (P02550 whole entry): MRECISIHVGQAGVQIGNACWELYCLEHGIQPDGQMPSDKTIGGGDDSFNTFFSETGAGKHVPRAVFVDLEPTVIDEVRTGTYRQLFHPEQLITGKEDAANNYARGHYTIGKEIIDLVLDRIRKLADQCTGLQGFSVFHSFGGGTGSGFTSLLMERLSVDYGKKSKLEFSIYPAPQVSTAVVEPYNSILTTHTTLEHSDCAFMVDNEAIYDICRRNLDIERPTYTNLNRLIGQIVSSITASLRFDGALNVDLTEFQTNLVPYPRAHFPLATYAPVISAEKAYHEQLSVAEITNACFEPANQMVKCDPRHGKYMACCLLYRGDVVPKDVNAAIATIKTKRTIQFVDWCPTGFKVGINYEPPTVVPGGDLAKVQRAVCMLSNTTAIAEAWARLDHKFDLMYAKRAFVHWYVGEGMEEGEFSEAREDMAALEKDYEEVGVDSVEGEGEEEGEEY

Substance | Kd [nM] | microtubule-bound fluorescence intensity at 3 nM | microtubule-bound fluorescence intensity at 12 nM | microtubule-bound fluorescence intensity at 48 nM | microtubule-bound fluorescence intensity at 25 nM
sfGFP-DCLK1-ΔC (aa 1-648) co-expressed with lambda phosphatase, without ATP (from UniProt O15075 1-648) (domain or fragment) | 3.9 | 6790 | 9840 | 14800 | –
sfGFP-DCLK1-T688A co-expressed with lambda phosphatase, without ATP (from UniProt O15075 1-740) (natural protein) | 2.4 | – | – | – | –
sfGFP-DCLK1-T687A co-expressed with lambda phosphatase, without ATP (from UniProt O15075 1-740) (natural protein) | 2.4 | – | – | – | –
sfGFP-DCLK1-ΔC (aa 1-648) treated with lambda phosphatase after purification (from UniProt O15075 1-648) (domain or fragment) | – | 11800 | – | – | 21600
sfGFP-DCLK1-ΔC4A co-expressed with lambda phosphatase, without ATP (from UniProt O15075 1-648) (domain or fragment) | – | 745 | 2550 | 4530 | –
sfGFP-DCLK1-WT co-expressed with lambda phosphatase, without ATP (from UniProt O15075 1-740) (natural protein) | 2.9 | 14900 | 20600 | 15900 | –
sfGFP-DCLK1-WT treated with lambda phosphatase after purification (from UniProt O15075 1-740) (natural protein) | – | 15900 | – | – | 18200
sfGFP-DCLK1-WT, expressed in bacteria under standard conditions (from UniProt O15075 1-740) (natural protein) | – | 2560 | – | – | 16500
sfGFP-DCLK1-D511N (kinase dead), expressed in bacteria under standard conditions (from UniProt O15075 1-740) (natural protein) | – | 7140 | – | – | 19600
sfGFP-DCLK1-T687/688A co-expressed with lambda phosphatase, without ATP (from UniProt O15075 1-740) (natural protein) | 9.4 | – | – | – | –
